In patent US20180016313A1 (MEDPACTO, published 2018):

What was measured:
[1] = target: T1, human LRP6 (hLRP6) protein (Cat. No. 1505-LR-025, R&D, USA) (human, UniProt O75581 20-1368, limits assumed); assay: ELISA, 100 ng hLRP6 coated, DKK2 protein diluted serially from 100 nM, KD calculated from absorbance at 490 nm
T1 construct: Coated on the ELISA plate
T1 sequence (looked up): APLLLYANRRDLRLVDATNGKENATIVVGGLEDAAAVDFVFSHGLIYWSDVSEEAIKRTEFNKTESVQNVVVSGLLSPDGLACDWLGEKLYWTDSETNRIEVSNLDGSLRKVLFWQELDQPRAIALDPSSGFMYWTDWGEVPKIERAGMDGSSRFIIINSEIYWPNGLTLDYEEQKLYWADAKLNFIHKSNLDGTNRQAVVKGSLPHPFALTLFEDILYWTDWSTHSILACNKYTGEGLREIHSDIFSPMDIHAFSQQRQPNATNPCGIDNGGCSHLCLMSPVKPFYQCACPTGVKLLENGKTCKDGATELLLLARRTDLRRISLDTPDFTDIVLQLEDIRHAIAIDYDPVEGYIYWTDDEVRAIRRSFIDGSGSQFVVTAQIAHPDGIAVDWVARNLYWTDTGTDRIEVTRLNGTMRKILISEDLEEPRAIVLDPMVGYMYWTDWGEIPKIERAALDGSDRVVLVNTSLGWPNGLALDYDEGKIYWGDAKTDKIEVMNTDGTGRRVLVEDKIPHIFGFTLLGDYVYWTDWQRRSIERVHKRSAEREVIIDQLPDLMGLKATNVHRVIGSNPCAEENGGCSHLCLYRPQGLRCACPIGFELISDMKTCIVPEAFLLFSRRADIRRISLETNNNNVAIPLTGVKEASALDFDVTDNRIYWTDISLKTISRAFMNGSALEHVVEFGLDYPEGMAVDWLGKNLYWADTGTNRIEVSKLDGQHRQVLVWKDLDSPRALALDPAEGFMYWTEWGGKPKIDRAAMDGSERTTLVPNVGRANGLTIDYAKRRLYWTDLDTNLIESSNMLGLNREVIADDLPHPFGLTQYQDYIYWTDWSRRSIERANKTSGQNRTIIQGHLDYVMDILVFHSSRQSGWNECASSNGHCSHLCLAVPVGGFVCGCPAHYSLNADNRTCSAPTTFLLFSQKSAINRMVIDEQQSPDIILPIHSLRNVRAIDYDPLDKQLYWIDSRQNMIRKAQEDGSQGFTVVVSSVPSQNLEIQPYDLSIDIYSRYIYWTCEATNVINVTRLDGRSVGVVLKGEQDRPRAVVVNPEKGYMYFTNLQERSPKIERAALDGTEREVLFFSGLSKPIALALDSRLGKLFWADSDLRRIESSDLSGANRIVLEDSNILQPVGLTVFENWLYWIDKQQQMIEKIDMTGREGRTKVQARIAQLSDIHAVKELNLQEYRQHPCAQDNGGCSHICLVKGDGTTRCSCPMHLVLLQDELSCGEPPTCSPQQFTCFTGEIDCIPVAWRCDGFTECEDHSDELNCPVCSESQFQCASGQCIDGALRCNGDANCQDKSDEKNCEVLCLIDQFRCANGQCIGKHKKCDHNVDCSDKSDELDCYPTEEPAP
Protocol: (§1) Each purified DKK2 protein and 100 μl of 1% (w/v) skim milk/1×PBS were mixed to prepare 100 nM of DKK2 protein, and 100 nM of DKK2 protein was subjected to ¼ serial dilution. The diluted protein was applied to the prepared ELISA plate, and incubated at room temperature for about 2 hours. Thereafter, the plate was washed with 200 μl of PBST five times.
(§2) 2 μl of anti-Human Fc-HRP (Cat. No. 31413, Thermo, USA) antibody was mixed with 4 ml of PBS containing 1% (w/v) skim milk, and 200 μl of this mixture was added to each well of ELISA plate and incubated at room temperature for 1 hour. Thereafter, the secondary antibody of the ELISA plate was removed, and the plate was washed with 200 of PBS five times. 10 μl of H₂O₂ solution (Cat. No. H1009-100ML, Sigma, USA), 10 ml of PC buffer (5.1 g of citric acid monohydrate, 7.3 g of sodium phosphate/L (pH 5.0)), and one tablet of OPD (Cat. No. P8787-100TAB, Sigma, USA) were mixed to prepare a mixture, and a total volume of 100 μl of the mixture was added to each well. Incubation was performed at room temperature in the dark for 10 minutes, followed by color development. Thereafter, 50 μl of a stop buffer was added to each well to terminate the color development. Absorbance at 490 nm was measured using an ELISA reader, and a dissociation constant KD value (M) was calculated from the measured absorbance. […]

[2] = target: T2, mouse LRP6 (mLRP6) protein (Cat. No. 2960-LR-025, R&D, USA) (mouse, UniProt O88572 20-1370, limits assumed); assay: ELISA, 100 ng mLRP6 coated, DKK2 protein diluted serially from 100 nM, KD calculated from absorbance at 490 nm
T2 construct: Coated on the ELISA plate
T2 sequence (looked up): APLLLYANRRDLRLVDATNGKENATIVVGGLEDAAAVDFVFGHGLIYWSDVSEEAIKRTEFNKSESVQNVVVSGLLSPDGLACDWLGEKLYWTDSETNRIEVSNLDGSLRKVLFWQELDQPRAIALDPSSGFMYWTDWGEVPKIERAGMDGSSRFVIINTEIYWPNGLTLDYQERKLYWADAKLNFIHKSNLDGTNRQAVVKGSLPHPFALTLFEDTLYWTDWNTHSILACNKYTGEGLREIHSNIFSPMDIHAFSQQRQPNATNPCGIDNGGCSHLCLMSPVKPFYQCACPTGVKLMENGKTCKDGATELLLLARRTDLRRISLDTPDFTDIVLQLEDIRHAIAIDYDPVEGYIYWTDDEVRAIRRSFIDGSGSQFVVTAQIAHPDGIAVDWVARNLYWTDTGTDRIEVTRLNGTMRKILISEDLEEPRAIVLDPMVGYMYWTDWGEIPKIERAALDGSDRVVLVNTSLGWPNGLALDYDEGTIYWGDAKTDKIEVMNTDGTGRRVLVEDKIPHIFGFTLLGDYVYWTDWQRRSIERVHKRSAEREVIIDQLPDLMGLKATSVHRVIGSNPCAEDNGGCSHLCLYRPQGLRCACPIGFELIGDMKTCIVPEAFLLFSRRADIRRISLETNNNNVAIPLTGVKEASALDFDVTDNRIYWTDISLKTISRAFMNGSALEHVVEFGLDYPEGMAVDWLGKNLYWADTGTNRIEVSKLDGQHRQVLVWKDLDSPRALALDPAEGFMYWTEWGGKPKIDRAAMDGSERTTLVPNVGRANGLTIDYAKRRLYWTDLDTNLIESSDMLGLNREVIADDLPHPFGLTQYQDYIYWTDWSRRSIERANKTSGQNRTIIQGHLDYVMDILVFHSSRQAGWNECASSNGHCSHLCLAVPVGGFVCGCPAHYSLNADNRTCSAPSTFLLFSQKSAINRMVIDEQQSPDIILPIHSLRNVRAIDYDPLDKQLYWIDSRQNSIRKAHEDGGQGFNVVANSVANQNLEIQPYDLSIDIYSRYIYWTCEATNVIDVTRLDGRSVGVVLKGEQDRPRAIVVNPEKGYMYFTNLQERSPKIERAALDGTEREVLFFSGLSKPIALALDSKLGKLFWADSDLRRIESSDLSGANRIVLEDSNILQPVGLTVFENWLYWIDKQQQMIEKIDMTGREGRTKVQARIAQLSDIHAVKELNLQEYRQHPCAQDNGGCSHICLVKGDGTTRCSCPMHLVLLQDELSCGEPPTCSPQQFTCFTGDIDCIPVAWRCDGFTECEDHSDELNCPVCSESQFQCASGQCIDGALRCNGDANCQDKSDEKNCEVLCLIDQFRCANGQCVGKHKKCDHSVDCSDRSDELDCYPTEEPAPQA
Protocol: as §1, §2

B1: wild-type DKK2 (Cat. No. 6628-DK-010, R&D, USA) (ligand)
chain: KLNSIKSSLGGETPGQAANRSAGMYQGLAFGGSKKGKNLGQAYPCSSDKECEVGRYCHSPHQGSSACMVCRRKKKRCHRDGMCCPSTRCNNGICIPVTESILTPHIPALDGTRHRDRNHGHYSNHDLGWQNLGRPHTKMSHIKGHEGDPCLRSSDCIEGFCCARHFWTKICKPVLHQGEVCTKQRKKGSHGLEIFQRCDCAKGLSCKVWKDATYSSKARLHVCQKI
notes: Bought protein; also called wild-type DKK2 protein
Kd [1]: 0.09 µM
Kd [2]: 0.27 µM
